Our source for the Kd and IC50 values is the Immune Epitope Database (IEDB).

Bounds are passed on as bounds.

Experiment [1] deals with HLA-C*03:03. Briefly: IEDB peptide-MHC binding, purified MHC/direct/fluorescence; filed as Kd, often an IC50 or EC50 that approximates it; ≥ and ≤ were set here for values at or beyond the usual limits of such assays. The following applies: source organism: Rickettsia bellii RML369-C.
Experiment [2] has as its target HLA-C*05:01. The description is as above. As to conditions: source organism: Rickettsia bellii RML369-C.
Experiment [3] concerns the target HLA-A*02:01. The experiment can be described thus: IEDB peptide-MHC binding, purified MHC/competitive/fluorescence; filed as Kd, often an IC50 or EC50 that approximates it; ≥ and ≤ were set here for values at or beyond the usual limits of such assays. The following applies: source organism: Rickettsia bellii RML369-C.
Experiment [4] deals with HLA-A*02:11. Described as above. As to conditions: source organism: Rickettsia bellii RML369-C.
Experiment [5] addresses HLA-A*03:01. The description is as above. As to conditions: source organism: Rickettsia bellii RML369-C.
The target in experiment [6] is HLA-A*29:02. The description is as above. The following applies: source organism: Rickettsia bellii RML369-C.
The target of experiment [7] is HLA-A*80:01. The description is as above.
The target in experiment [8] is HLA-B*18:01. Described as above. The following applies: source organism: Rickettsia bellii RML369-C.
Experiment [9] addresses HLA-B*27:03. The description is as above. As to conditions: source organism: Rickettsia bellii RML369-C.
Experiment [10] has as its target HLA-B*57:01. The description is as above. As to conditions: source organism: Rickettsia bellii RML369-C.
The target of experiment [11] is HLA-A*23:01. Described as above. The following applies: source organism: Vibrio parahaemolyticus K5030.
Experiment [12] addresses HLA-B*07:02. The experiment can be described thus: IEDB peptide-MHC binding, purified MHC/competitive/fluorescence; ≥ and ≤ were set here for values at or beyond the usual limits of such assays. As to conditions: source organism: Callithrix jacchus.
Experiment [13] concerns the target HLA-B*53:01. Described as above. As to conditions: source organism: Callithrix jacchus.
Experiment [14] concerns the target HLA-A*01:01. Briefly: IEDB peptide-MHC binding, purified MHC/direct/fluorescence; filed as Kd, often an IC50 or EC50 that approximates it; ≥ and ≤ were set here for values at or beyond the usual limits of such assays. As to conditions: source organism: Influenza A virus (A/swine/Chiai/77-10/2001(H3N1)).
In experiment [15] the target is HLA-A*02:01. The description is as above. As to conditions: source organism: Influenza A virus (A/swine/Chiai/77-10/2001(H3N1)).
Experiment [16] deals with HLA-A*03:01. Described as above. The following applies: source organism: Influenza A virus (A/swine/Chiai/77-10/2001(H3N1)).
Experiment [17] addresses HLA-A*26:01. The description is as above. The following applies: source organism: Influenza A virus (A/turkey/NC/17026/1988(H1N1)).
Experiment [18] addresses HLA-A*31:01. The experiment is described as above. The following applies: source organism: Influenza A virus (A/swine/Chiai/77-10/2001(H3N1)).
For experiment [19], the target named is HLA-A*69:01. The experiment is described as above. The following applies: source organism: Influenza A virus (A/swine/Chiai/77-10/2001(H3N1)).
Experiment [20] concerns the target HLA-B*07:02. The description is as above. The following applies: source organism: Influenza A virus (A/swine/Chiai/77-10/2001(H3N1)).
Experiment [21] concerns the target HLA-B*08:01. The description is as above. The following applies: source organism: Influenza A virus (A/turkey/NC/17026/1988(H1N1)).
In experiment [22] the target is HLA-B*08:02. The description is as above. The following applies: source organism: Influenza A virus (A/turkey/NC/17026/1988(H1N1)).
Experiment [23] deals with HLA-B*15:01. Described as above. As to conditions: source organism: Influenza A virus (A/swine/Chiai/77-10/2001(H3N1)).
Experiment [24] deals with HLA-B*15:09. The description is as above. The following applies: source organism: Influenza A virus (A/turkey/NC/17026/1988(H1N1)).
The target in experiment [25] is HLA-B*15:17. Described as above. The following applies: source organism: Influenza A virus (A/swine/Chiai/77-10/2001(H3N1)).
Experiment [26] has as its target HLA-B*18:01. The description is as above. The following applies: source organism: Influenza A virus (A/swine/Chiai/77-10/2001(H3N1)).
For experiment [27], the target named is HLA-B*27:05. The description is as above. The following applies: source organism: Influenza A virus (A/swine/Chiai/77-10/2001(H3N1)).
Experiment [28] has as its target HLA-B*39:01. The experiment is described as above. As to conditions: source organism: Influenza A virus (A/turkey/NC/17026/1988(H1N1)).
Experiment [29] deals with HLA-B*40:01. The description is as above. As to conditions: source organism: Influenza A virus (A/swine/Chiai/77-10/2001(H3N1)).
For experiment [30], the target named is HLA-B*46:01. The description is as above. The following applies: source organism: Influenza A virus (A/swine/Chiai/77-10/2001(H3N1)).
In experiment [31] the target is HLA-B*48:01. The description is as above. The following applies: source organism: Influenza A virus (A/swine/Chiai/77-10/2001(H3N1)).
Experiment [32] has as its target HLA-B*57:01. Described as above. The following applies: source organism: Influenza A virus (A/swine/Chiai/77-10/2001(H3N1)).
Experiment [33] has as its target HLA-B*58:01. The experiment is described as above. The following applies: source organism: Influenza A virus (A/swine/Chiai/77-10/2001(H3N1)).
The target of experiment [34] is HLA-A*11:01. Briefly: IEDB peptide-MHC binding, purified MHC/competitive/fluorescence; filed as Kd, often an IC50 or EC50 that approximates it; ≥ and ≤ were set here for values at or beyond the usual limits of such assays. The following applies: source organism: Influenza A virus.

FTIGNMFSL: the dissociation constant Kd in [1] is 0.055 µM; in [2], at least 20 µM; in experiment [3], 0.0244 µM; in [4], 0.0059 µM; in [5], at least 20 µM; in [6], 0.738 µM. The Kd in [7] (source organism: Rickettsia bellii RML369-C), in [8], in experiment [9] and in [10] was at least 20 µM in each case.

The sequence SYHNVDQLK had a dissociation constant Kd in experiment [11] of at least 20 µM.

For VPIAWAAA, the IC50 is 0.144 µM in experiment [12] and at least 20 µM in [13].

Consider VSFDQNLDY, for which the Kd in experiment [14] was 0.117 µM; in experiment [15] it was at least 20 µM; in experiment [16], 6.5 µM; in experiment [17], at least 20 µM; in experiment [18], at least 20 µM; in [19], at least 20 µM. For the same sequence, the Kd in experiment [20] was at least 20 µM; in [21], at least 20 µM; in experiment [22], at least 20 µM; in experiment [23], 0.019 µM; in [24] it was at least 20 µM; in [25], 0.0016 µM. In addition, the Kd in [26], in [27], in [28], in experiment [29], in [30] and in [31] was at least 20 µM in each case. In addition, the Kd in experiment [32] was at least 20 µM; in experiment [33] it was 3.44 µM; in experiment [34] it was 0.0987 µM; in [7] (source organism: Influenza A virus) it was 0.0184 µM.
